Earlier results, collected in paper PMC8400902.
Like-named read-outs stand apart in the source and are kept apart here.

Assays:
[1] = target: Amyloid beta fibril (Homo sapiens) (UniProt P05067)
[2] = target: Amyloid beta (Homo sapiens) (UniProt P05067)
[3] = target: Amyloid beta (Homo sapiens) (UniProt P05067); remark: listed apart in the source

Sequence of Serum amyloid P component (P02743 20-222): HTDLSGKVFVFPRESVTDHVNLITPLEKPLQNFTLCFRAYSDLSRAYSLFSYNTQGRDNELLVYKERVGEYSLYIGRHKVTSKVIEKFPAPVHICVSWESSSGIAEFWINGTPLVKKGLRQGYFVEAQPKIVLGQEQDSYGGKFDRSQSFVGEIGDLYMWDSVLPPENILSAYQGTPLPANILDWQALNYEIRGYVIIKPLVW
Sequence of Haptoglobin (P00738 19-160): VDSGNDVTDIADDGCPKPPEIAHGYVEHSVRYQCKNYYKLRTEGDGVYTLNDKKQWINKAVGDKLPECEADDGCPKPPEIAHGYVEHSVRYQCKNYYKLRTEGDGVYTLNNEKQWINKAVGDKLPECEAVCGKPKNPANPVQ
Sequence of Agrin (O00468 1864-2068): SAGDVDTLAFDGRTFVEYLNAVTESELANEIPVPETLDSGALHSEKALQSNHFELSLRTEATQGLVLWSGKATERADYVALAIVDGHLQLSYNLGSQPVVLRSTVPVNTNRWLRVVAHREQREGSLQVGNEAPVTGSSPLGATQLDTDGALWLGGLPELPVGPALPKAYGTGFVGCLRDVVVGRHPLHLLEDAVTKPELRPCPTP

For Agrin (from UniProt O00468), the Kd [1] is listed as 3.5 nM.

For Haptoglobin (from UniProt P00738), the Kd [2] is listed as 300 nM.

In the case of “Serum amyloid P component (from UniProt P02743)”, the Kd [3] is listed as 6 nM.
